Target: Knob F241R/F243S (knob Fc with F241R/F243S mutations) (human) [IgG part: P0DOX5]
Test: size exclusion chromatography, against wild-type knob Fc

Reduction in homodimer content: 64.5%
Substance: Knob F241R/F243S (knob Fc with F241R/F243S mutations) (from UniProt P0DOX5 223-449)
